B1: LIM and senescent cell antigen-like-containing domain protein 2, residues 13 to 71; numbered along this chain, Q7Z4I7 (parent)
chain: AVCQRCQARFSPAERIVNSNGELYHEHCFVCAQCFRPFPEGLFYEFEGRKYCEHDFQML

Variants of: B1
Assay: abundance fitness (aPCA) (normalised: wild type 0, dead -1); higher = more abundant; growth selection in yeast, the domain comes from the species named
Conditions: Homo sapiens

Abundance fitness: each site, then its substitutions
E14: M -0.41 | L -0.512 | T -0.242 | Y -0.224 | Q -0.106 | F -0.658 | G -0.05 | H -0.451 | P -0.577 | N -0.343 | R -0.651 | W -0.428 | V -0.184 | S -0.034 | I -0.611
V17: D -0.298 | F -0.019 | R -0.117 | N -0.147 | M -0.248 | I 0.009 | W -0.492 | T -0.048 | Y -0.262 | C -0.298 | H 0.01 | K 0.03 | L -0.003 | G -0.372 | E -0.251 | P -0.727
E22: W -0.31 | Y -0.08 | M -0.093 | Q 0.216 | T -0.006 | D -0.598 | F 0.133 | I -0.162 | K -0.01 | R 0.537 | V -0.098 | A 0.079 | C 0.056 | N 0.053 | G -0.096 | S -0.093 | H 0.101
S19: V -0.187 | A -0.106 | F -0.22 | W -0.16 | G 0.015 | I -0.151 | P -0.29 | E -0.015 | T -0.064 | Q -0.068 | H -0.19 | C -0.117 | L -0.132 | Y -0.455 | R 0.113 | D 0.058 | K -0.189
L23: A 0.001 | H 0.238 | P 0.027 | E -0.18 | G -0.2 | C -0.185 | K -0.013 | I 0.078 | N -0.076 | F -0.082 | M 0.067 | D -0.106
G21: S -0.054 | I -0.947 | F -0.4 | D -0.324 | P -0.457 | L -0.17 | N -0.063 | Q -0.2 | M -0.328 | A -0.045 | V -0.45 | E 0.053 | R -0.332 | W -0.752 | Y -0.518 | H -0.178 | K -0.016 | C -0.435
N20: L -0.136 | M -0.155 | I -0.482 | D 0.313 | S 0.087 | H 0.087 | Q -0.116 | P -0.528 | T -0.085 | C -0.038 | R -0.161 | A -0.005 | E -0.282 | G 0.084 | F -0.359 | K 0.797 | Y -0.376
I16: V -0.194 | N -0.174 | K 0.098 | S -0.04 | M 0.026 | G -0.178 | Y -0.2 | C -0.069 | Q -0.069 | D -0.267 | T 0.07 | P -0.104 | R -0.114 | W -0.146 | L -0.023 | A -0.1 | E -0.341
N18: H -0.281 | I -0.244 | W -0.639 | A -0.227 | F 0.11 | S -0.333 | C -0.089 | P -0.191 | L -0.615 | M -0.323 | Y -0.603 | R -0.202 | K -0.411 | D -0.068 | E -0.116 | V -0.316 | Q -0.06 | G -0.15 | T -0.312
R15: N -0.184 | H -0.168 | S 0.098 | A -0.178 | I -0.017 | K 0.147 | F -0.467 | L -0.255 | C -0.198 | E 0.01 | D -0.009 | G -0.144 | Y -0.153 | V -0.107 | Q -0.021 | P -0.03 | W -0.595 | M -0.069 | T 0.037

From the Human Domainome abundance scans (Beltran et al. 2025)
